Assay results as given in patent US20160272716A1 (AGENSYS, published 2016).
One block for each molecule: values may come before it.

Key:
[1] = target: T1, human FLT3 expressed on the cell surface (human, UniProt P36888 27-993); test: FACS, biotinylated isotype control 10 ug/ml, Streptavidin-PE, SKM-1 cells (AML)
T1 construct: FLT3 on human leukemia cell lines, on recombinant cells and on primary blood cells; also called Flk2; STK1

[2] = target: T1, human FLT3 expressed on the cell surface; test: FACS, biotinylated isotype control 10 ug/ml, Streptavidin-PE, MV-4-11 cells (AML)
[3] = target: T1, human FLT3 expressed on the cell surface; test: FACS, biotinylated isotype control 10 ug/ml, Streptavidin-PE, OCI-AML2 cells (AML)
[4] = target: T1, human FLT3 expressed on the cell surface; test: FACS, biotinylated isotype control 10 ug/ml, Streptavidin-PE, REH cells (ALL)
[5] = target: T1, human FLT3 expressed on the cell surface; test: FACS, biotinylated isotype control 10 ug/ml, Streptavidin-PE, PL-21 cells (AML)
[6] = target: T1, human FLT3 expressed on the cell surface; test: FACS, biotinylated isotype control 10 ug/ml, Streptavidin-PE, MONOMAC-1 cells (AML)
[7] = target: T1, human FLT3 expressed on the cell surface; test: FACS, biotinylated isotype control 10 ug/ml, Streptavidin-PE, MOLM-13 cells (AML)
[8] = target: T1, human FLT3 expressed on the cell surface; test: FACS, biotinylated isotype control 10 ug/ml, Streptavidin-PE, RS4;11 cells (B-ALL)
[9] = target: T1, human FLT3 expressed on the cell surface; test: FACS, biotinylated isotype control 10 ug/ml, Streptavidin-PE, THP-1 cells (AML)
[10] = target: T1, human FLT3 expressed on the cell surface; test: FACS, biotinylated isotype control 10 ug/ml, Streptavidin-PE, NALM-1 cells (CML)
[11] = target: T1, human FLT3 expressed on the cell surface; test: FACS, biotinylated isotype control 10 ug/ml, Streptavidin-PE, EOL-1 cells (AML)
[12] = target: T1, human FLT3 expressed on the cell surface; test: FACS, biotinylated isotype control 10 ug/ml, Streptavidin-PE, SEM cells (B-ALL)
[13] = target: T1, human FLT3 expressed on the cell surface; test: FACS on MOLM-13 cells: 30 min pre-incubation with human FLT3 ligand, then biotinylated antibody, streptavidin-PE
Experimental: (§1) In another experiment, The ability of anti-FLT3 antibodies, CHv62.21 and v62-1b37.1, to bind to FLT3 expressed on the surface of human leukemia MOLM-13 cell line was evaluated in the presence of human FLT3 Ligand (hFL). Isotype control antibody, AGS91.1-pAF, was used as a negative control.
(§2) Briefly, The MOLM-13 cells were seeded at a density of 50,000 cells per well onto round-bottom 96 well plates. The plates were washed one time with 150 μl per well of PBS. The cells were Fc blocked (20 μg/mL) at a volume of 50 μl per well in FACS buffer (PBS+2% FBS+0.1% sodium azide) to reduce non-specific binding. Cells were incubated at 4° C. for 15 minutes. Human FLT3 Ligand was added to appropriate wells at 100 ng/mL and serially diluted 1:2 across the plate for a total of 11 points. Cells were incubated for 30 minutes at 4° C. prior to adding biotinylated FLT3 antibodies. After incubation, the biotinylated anti-FLT3 antibodies and isotype control antibody were prepared in FACS buffer at 10 μg/mL and 1 μg/mL and 25 μl was added to wells and incubated for 1 hour at 4° C. Cells were washed two times with FACS buffer and Streptavidin-PE (Jackson immune) was added 100 μl per well and incubated for 1 hour at 4° C. Cells were washed two times with FACS buffer and read on the Attune Cytometer (Life technologies) and analyzed in FlowJo (Tree Star) software.

[14] = target: T1, human FLT3 expressed on the cell surface; test: flow cytometry, cell surface FLT3
[15] = target: T1, human FLT3 expressed on the cell surface; test: FACS, biotinylated antibody 10 ug/ml, Streptavidin-PE, MV-4-11 cells (AML)
Experimental: (§3) CHv62.21 was tested for binding to AML and B-ALL cell lines grown in vitro. (See, FIG. 15A-M). Briefly, CHv62.21 and an isotype matched control antibody were biotinylated using NHS LC biotin. In vitro, exponentially grown cancer cell lines were used for all experiments. Cells were harvested by and washed by centrifugation. Cells were Fc blocked to reduce non-specific binding. Antibodies were diluted to 10 ug/ml final concentration and co-incubated with cells at 4° C. for 1 hour. At the end of the incubation, cells were washed and incubated with secondary detection Streptavidin-PE antibody at a final 1:200 (2.5 ug/ml) dilution for 1 hour at 4° C. After washing un-bound secondary antibody, cells were analyzed by FACS and geometric mean fluorescence was determined and reported. Fluorescence ratio was calculated as follows: Geo mean cHv62.21/Geo mean isotype control=MFR, a measure of fold expression above isotype control.
(§4) Geometric Mean values and Mean Florescence ratios (MFR) values were obtained (Table VI) and histograms are shown (FIG. 15A-M).

[16] = target: T1, human FLT3 expressed on the cell surface; test: FACS, biotinylated antibody 10 ug/ml, Streptavidin-PE, PL-21 cells (AML)
Experimental: as §3, §4

[17] = target: T1, human FLT3 expressed on the cell surface; test: FACS, biotinylated antibody 10 ug/ml, Streptavidin-PE, REH cells (ALL)
Experimental: as §3, §4

[18] = target: T1, human FLT3 expressed on the cell surface; test: FACS, biotinylated antibody 10 ug/ml, Streptavidin-PE, MONOMAC-1 cells (AML)
Experimental: as §3, §4

[19] = target: T1, human FLT3 expressed on the cell surface; test: FACS, biotinylated antibody 10 ug/ml, Streptavidin-PE, EOL-1 cells (AML)
Experimental: as §3, §4

[20] = target: T1, human FLT3 expressed on the cell surface; test: FACS, biotinylated antibody 10 ug/ml, Streptavidin-PE, RS4;11 cells (B-ALL)
Experimental: as §3, §4

[21] = target: T1, human FLT3 expressed on the cell surface; test: FACS, biotinylated antibody 10 ug/ml, Streptavidin-PE, MOLM-13 cells (AML)
Experimental: as §3

[22] = target: T1, human FLT3 expressed on the cell surface; test: FACS, biotinylated antibody 10 ug/ml, Streptavidin-PE, SKM-1 cells (AML)
Experimental: as §3, §4

[23] = target: T1, human FLT3 expressed on the cell surface; test: FACS, biotinylated antibody 10 ug/ml, Streptavidin-PE, NALM-1 cells (CML)
Experimental: as §3

[24] = target: T1, human FLT3 expressed on the cell surface; test: FACS, biotinylated antibody 10 ug/ml, Streptavidin-PE, SEM cells (B-ALL)
Experimental: as §3

[25] = target: T1, human FLT3 expressed on the cell surface; test: FACS, biotinylated antibody 10 ug/ml, Streptavidin-PE, THP-1 cells (AML)
Experimental: as §3, §4

[26] = target: T1, human FLT3 expressed on the cell surface; test: FACS, biotinylated antibody 10 ug/ml, Streptavidin-PE, OCI-AML2 cells (AML)
Experimental: as §3, §4

[27] = target: T1, human FLT3 expressed on the cell surface; test: competition FACS on MOLM-13 cells: FL titrated 0.1 to 100 ng/ml, 30 min pre-incubation; displaced antibody: biotinylated cHv62-1b37.1 at 10 ug/ml
Experimental: as §1, §2

T1 sequence (P36888 27-993 T227M limits assumed): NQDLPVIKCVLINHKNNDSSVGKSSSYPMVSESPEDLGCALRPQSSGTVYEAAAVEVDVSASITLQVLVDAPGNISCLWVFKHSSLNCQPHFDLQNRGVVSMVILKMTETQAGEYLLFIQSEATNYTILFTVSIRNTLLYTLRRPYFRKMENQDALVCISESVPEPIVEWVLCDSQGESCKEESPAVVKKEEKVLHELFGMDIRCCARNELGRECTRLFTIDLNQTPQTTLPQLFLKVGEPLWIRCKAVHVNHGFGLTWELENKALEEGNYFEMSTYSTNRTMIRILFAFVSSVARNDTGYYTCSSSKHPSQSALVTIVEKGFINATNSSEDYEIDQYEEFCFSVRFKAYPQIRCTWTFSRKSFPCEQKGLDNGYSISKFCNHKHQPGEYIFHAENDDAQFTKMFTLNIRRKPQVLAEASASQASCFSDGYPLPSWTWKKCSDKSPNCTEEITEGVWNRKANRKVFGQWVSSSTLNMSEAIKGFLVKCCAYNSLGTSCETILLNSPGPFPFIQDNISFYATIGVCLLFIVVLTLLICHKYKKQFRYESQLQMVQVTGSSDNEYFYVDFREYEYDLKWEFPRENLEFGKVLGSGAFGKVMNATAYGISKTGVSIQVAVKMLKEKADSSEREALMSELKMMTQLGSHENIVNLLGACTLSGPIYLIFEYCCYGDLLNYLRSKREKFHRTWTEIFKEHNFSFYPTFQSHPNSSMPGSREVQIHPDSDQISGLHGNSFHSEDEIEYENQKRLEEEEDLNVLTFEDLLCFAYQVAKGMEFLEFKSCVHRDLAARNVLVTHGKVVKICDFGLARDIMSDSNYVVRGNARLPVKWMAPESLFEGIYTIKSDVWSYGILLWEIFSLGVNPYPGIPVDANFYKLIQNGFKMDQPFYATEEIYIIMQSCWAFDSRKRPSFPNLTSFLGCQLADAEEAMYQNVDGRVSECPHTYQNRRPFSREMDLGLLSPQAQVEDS

B1: v62-1b37.1 (antibody, human IgG1, kappa, V domains shown)
VH: EVQLVESGGGVVRPGGSLRLSCAASGFTFDDYGMSWVRQAPGKGLEWVSGINWNGGSTGYADSVKGRFTISRDDAKNSLYLQMNSLRAEDTALYHCARDGYTYGPFDNWGQGTLVTVSS
VL: DIQMTQSPSSLSASVGDRVTITCRASQGIRNDLGWYQQKPGKAPKRLIYAASSLQSGVPSRFSGSGSGTEFTLTISSLQPEDFATYYCLQHNSYPYTFGQGTKLEIKR
modifications: biotinylated in the MOLM-13 FACS
notes: also called cHv62-1b37.1
binding result [13]: binds

B2: v62-1b21 (hybridoma MAb) (antibody, V domains shown)
VH: EVQLVESGGGLVRPGGSLRLSCAASGFTFSGYSINWVRQAPGKGLEWVSSISSSSNYIYYADSVKGRFTISRDNAKNSLYLQMNSLRAEDTAVYYCAREGFIAGTTFDAFDIWGQGTMVTVSS
VL: DIQMTQSPSSLSASVGDRVTITCRASQGIRNDLGWYQQKPGKAPKRLIYAASSLQSGVPSRFSGSGSGTEFTLTISSLQPEDFATYYCLQHNGFPYTFGQGTKLEIKR
notes: also called AGS62.21; v62.21
binding result [14]: binds

B3: CHv62.21 MAb (antibody, human IgG1, kappa, V domains shown)
VH: EVQLVESGGGLVRPGGSLRLSCAASGFTFSGYSINWVRQAPGKGLEWVSSISSSSNYIYYADSVKGRFTISRDNAKNSLYLQMNSLRAEDTAVYYCAREGFIAGTTFDAFDIWGQGTMVTVSS
VL: DIQMTQSPSSLSASVGDRVTITCRASQGIRNDLGWYQQKPGKAPKRLIYAASSLQSGVPSRFSGSGSGTEFTLTISSLQPEDFATYYCLQHNGFPYTFGQGTKLEIKR
modifications: C-terminal lysine deleted in most of the purified MAb; N-terminal pyroglutamate in a part of it; biotinylated with NHS LC biotin for the FACS of Table VI
notes: Recombinant, CHO-expressed, human IgG1 / kappa; variable regions from hybridoma v62-1b21; ATCC PTA-121831; also called cHv62-1b21.1
MFR (Geo mean cHv62.21/Geo mean isotype control) [15]: 8 fold
MFR (Geo mean cHv62.21/Geo mean isotype control) [16]: 7 fold
MFR (Geo mean cHv62.21/Geo mean isotype control) [17]: 69 fold
MFR (Geo mean cHv62.21/Geo mean isotype control) [18]: 34 fold
MFR (Geo mean cHv62.21/Geo mean isotype control) [19]: 50 fold
MFR (Geo mean cHv62.21/Geo mean isotype control) [20]: 86 fold
MFR (Geo mean cHv62.21/Geo mean isotype control) [21]: 44 fold
MFR (Geo mean cHv62.21/Geo mean isotype control) [22]: 7 fold
MFR (Geo mean cHv62.21/Geo mean isotype control) [23]: 49 fold
MFR (Geo mean cHv62.21/Geo mean isotype control) [24]: 623 fold
MFR (Geo mean cHv62.21/Geo mean isotype control) [25]: 42 fold
MFR (Geo mean cHv62.21/Geo mean isotype control) [26]: 17 fold

Further lines, results first:

Geometric Mean fluorescence [1]: 445
Geometric Mean fluorescence [2]: 366
Geometric Mean fluorescence [3]: 329
Geometric Mean fluorescence [4]: 235
Geometric Mean fluorescence [5]: 570
Geometric Mean fluorescence [6]: 338
Geometric Mean fluorescence [7]: 320
Geometric Mean fluorescence [8]: 213
Geometric Mean fluorescence [9]: 474
Geometric Mean fluorescence [10]: 262
Geometric Mean fluorescence [11]: 281
Geometric Mean fluorescence [12]: 212
Molecule: isotype matched control antibody (Example 9)

IC50 (read off the curve) [27]: ~10 ng/mL
B4: human FLT3 ligand (ligand, UniProt P49771 27-185, looked up)
chain: TQDCSFQHSPISSDFAVKIRELSDYLLQDYPVTVASNLQDEELCGGLWRLVLAQRWMERLKTVAGSKMQGLLERVNTEIHFVTKCAFQPPPSCLRFVQTNISRLLQETSEQLVALKPWITRQNFSRCLELQCQPDSSTLPPPWSPRPLEATAPTAPQPP
modifications: biotinylated (Sulfo-NHS-LC-Biotin) in the Luminex assay
notes: later experiments say human FLT3 ligand; Treated as one molecule; also called hFL
